The nanobody polyreactivity screen of Harvey et al. (2022)

Assay: yeast display, Sf9 membrane polyspecificity reagent, FACS + sequencing; frameworks hold sequencing errors
Method in brief: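 Nanobodies came from a synthetic yeast display library in Saccharomyces cerevisiae BJ5465, induced with galactose for 36–48 hours and stained for 1 hour at 4 °C with 10% biotinylated, detergent-solubilized Sf9 membrane reagent. Cells were enriched on streptavidin microbeads and then FACS-sorted, with low and high (top ~1%) gates set on anti-HA fluorescence for expression and streptavidin fluorescence for reagent binding. Each polyreactivity label reflects the gate a clone came from. Genes were amplified by colony PCR, sequenced by MiSeq 2 × 250 and filtered by CDR length.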

Row | Sequence | polyreactivity (PSR sort gate)
1 | QVQHVESGGGLVQAGGSLRLSCAASGRIFGKNDMGWYRQAPGNERELVAAITTSGGSTYYADSVKGRFTISRYNAKNTVYLQMNSLKPEDTAVYYCNAAFQNKGYIRKYKYDYWGQGTQVTVSS | low polyreactivity
2 | QVQLVESGGGLVQAGGSLRLSCAASGRTSEIYTMGWYRQAPGKERELVASINTNYADSVKGRFTISRDNAKNTVYLQMNSLKPEDTAVYYCNADDTIEFNYWGQGTQVTVSS | low polyreactivity
3 | QVQLVESGGGLVQAGGSLRLSCAASGITFYYYAMGWYRPAPGKERELVADITGTGSRTYYADSVKGRFTISRDNAKNTVYLQMNSLKPEDTAVYYCAATKRFPWFVYGEGDSWGQGTQVTVSS | high polyreactivity
4 | QVQLVESGGGLVQAGGSLRLSCAASGRIFGGYAMGWSRQAPGKERELVAAISNGGSTYYADSVKGRFTISRDNAKNTVYLQMNSLKPEDTAVYYCAARWNWTGYRYDHWGQGTQVTVSS | low polyreactivity
5 | HVQLVESGGGLVQAGGSLRLICGASGFTFPNYAMGGYRHAPGKERELVAAITSGGGRTNYADSVKGRFTISRDNAKITVYLQMNSLKPADTAVYYCNAEKTYLGSRYRPYNYWGQGTQVTVSS | low polyreactivity
6 | QVQLVESGGGLVQAGGSLRLSCAASGITFGRNTMGWYRQAPGKERELVAAIDSGGNTYAVSVKGRFTISRDNAKNTVYLQMNSLKPEDTAVYYCAVDGGEYSYYGTYDYWGQGTQVTVSS | low polyreactivity
7 | QVQLVESGGGLVQAGGSLRLSCAASGLIFYNYAMGWYRQAPGKERELVAAITSGGSTYYADSVKGGFTISRDNAKNTVYLQMNSLKPEDTAVYYWAADLTYTVPFDYWGQGTQVTVSS | high polyreactivity
8 | QVQLVESGGGLVQAGGSLRLSWAASGRILSANAMGWYRQAPGKERELVAAITYSGDNTYYADSVKGRFTISRDNAKNTVDVQMNSLKPEDTAVYYCAAVRYYAYLSSWRYDYWGQGTQVTVSS | low polyreactivity
9 | QVQLEESGGGLVQAGGSLRLSCAASGSISVRYTMGSYRQAPGKERELVAGISRSGGTTYADSVKGRFTISRDNGKNTVYLQMNSLKQEDTAVYYCAAELRRGSGRSYKGYYYWGQGTQVSVSS | low polyreactivity
10 | QVQLVESGGGLVQAGGSLRLSCAASGGTIYFYDMGWYRQAPGKEREFVAAIDGSAGRTYYADSVKGRFTISRDNAKNTVYLQMNSLKPEDTAVYYCAADWAQQSEQEYGTTYDYWGQGTQVTVSS | low polyreactivity
11 | QVQLVESGGGLVQAGGSLRLSCAASGRILYQYDMGWYRQAPGKERELVASISRSGGRTYYADSVKGRFTISRDNAKNTVYLQMNSLNPEDTAVYYCAAELTYFGYPIDFDSWGQGTQVSVSS | low polyreactivity
12 | QVQLVESGGGLVQAGGSLRLSCAASGFTFDLYAMGWSRQAPGKERELVASISSGGITYYADSVKGRFTITRDNANNTVYLQMNSLKPEDTAVYYCARDWRYGSWEGDDYWGQGTQVTVSS | low polyreactivity
13 | QVQLVESGGGLVQAGGSLRLSCAASGFTFYAYAMGWYRQAPGKERELVAAITWSGGRTYYADSVKGRFTISRDNAKNTVYLQMNSLKPEDTAVYYCAKRYWGQARYHTGHDYWGQGTQVTVSS | high polyreactivity
14 | QVQLVESGGGLVQAGGSLRLSCAASGFTFRWYDMGWYRKAPGKERELVAAIDASDGSTYYADSVKGRFTISRDNAKNTVYLLMNSLKPEDTAVYYCAAEDYQPYFYLYWYDYWGQGTQVTVSS | high polyreactivity
15 | QVQLVESGGGLVQAGGSLRLSCAASGSIFPGYALGWYRQAPGKERELVATIRWSSGSRTNYADSVKGRFTISRENAKKTVYLQMNSLKPEDSAVYYCAAGSRRYKYDYWGQGTQVTVSS | high polyreactivity
16 | QVHLVESGGGLVQAGGSLRLSCAASGIIFGGNVMGWYRQAGGKERELVAAITWSGGTTYYADSVKGRFTISRDNAKNTVYLQMNSLKPEDTAVYYCAADRFYLDYVAGTYDYWGQGTQVTVSS | low polyreactivity
17 | QVQLQESGGGLEPAGGSLRLSCAASGTISVHASMGWYRQAPGKERELVAGITDGANTYYADSVKGRFTISRDNSKNTVYLQMNSLKPEDTAVYYCAAYYGTAFHFTYWCQGTQVTVSS | low polyreactivity
18 | QVQLVESGGGLVQAGGSLRLSCAASGRIFVANGLGWYRQAPGKERELVAAITWSGDNTYYADSVKGRFTISRDNAKNTVYLQMNSLKPEDTAVYYCATPRSWYFPYGYWGQGTQVTVSS | high polyreactivity
19 | QVQLVESGGGLVQAGGSLRLSCAASGRIFIVYAMGRYRQAPGKERELVAAISWNGGRTYYADSVKGRFTISRDNAKNTVYLQMNSLKPEDTAVYYCNAVALYPYTTYDYWGQGTQVTVSS | high polyreactivity
20 | QVQLVESGGGLVQAGGSLRLSCAASGFTFHDYAMGWYRQAPGKERELVAAITKSGGRTYYADSVKGRFTISRDNAKNTVYLQMNSLKPEDTAVYYCAAASYRSQYDYYYWGQGTQVTVSS | high polyreactivity
21 | QVQLVESGGGLVQAGGSLRLSCAASGRIFYLNAMGWYRQAPGKERELVAVITGNAGSTYYADSVKGRFTISRDNAKNTVYLQMNSLKPEDTAVYYCNALRLVPWSDALYDYWGQGTQVTVSS | low polyreactivity
22 | QVQLVESGGGLVQAGGSLRLSCADSGSIFWLYAMGWYRQAPGKERELVAAIDSGDSTKYADSVKGRFTISRDNAKNTVYLQMNSLKPEDTAVYYCNASRRYHVRAPYDYWGQGTQVTVSS | low polyreactivity

Row | Sequence | polyreactivity (PSR sort gate)
23 | QVQLVESGGGLVQAGGSLRLSCAASGRTFYPYAMGWNRQAPGKERELVAAIRSSGGTTYYADSVKGRFTISRDNAKNTVYLQMNSLKPEDTAFYYCAAYVDRQGGYYWGQGTQVTVSS | high polyreactivity
24 | QVQLVESGGGLVQAGGSLRLSCAASGFIFYRYAMGWYRQAPGKERELVATIRYSGGSTYYADSVKGRFTISRDNAKNTVYLQMNSLKPEDTAVYYCNARRRHPSVSRPPYDYWGQGTQVTVSS | high polyreactivity
25 | QDQLVESGGGLVQAGGSLRLSCAASGPIFRSYAMGWYRQAPGKEMELVAAISRSGGSTYYADSVKGRFSISRDNAKNSVYLHMNSLKPEDSAVYYCAADYILLGGRRKFDSWGQGTQVTVSS | low polyreactivity
26 | QVQHVESVGGLVQAGGSLRLSCAASGSIFGRYAMGWYRHAPGKERELVAAISWSGGSTYYADSVKGRFTISRDNAKNTVYLQMNSLKPEDTAVYYCAATTYSGFDYWGQGTQVTVSS | high polyreactivity
27 | QVQLVESGGGLVQEGGSLRLSCAASGSTFLKYDMGWYRQAPGNERELVAAISWDGGSTYYADSVKGRFTISRDNAKNTVYLQMNSLKPEDTAVYYCNADYDVYLTICYYYGEFDYWGQGTQVTVSS | low polyreactivity
28 | QVQLVESGGGLVQAGGSLRLSCAASGFTISRNAMGWYRQAPGKERELVAAISQSGGSTYYADSVKGRFTISRDNAKNTVYLQMNSLKPEDTAVYYCAAQSFAQYGWRYGYWGQGTQVTVSS | high polyreactivity
29 | QVQLVESVGGLLQAGGSLRLSCAASGSIFRGYAMGWYRQAPGKERDLVAAISWSGGSTYYADSVKGRFTISRDNAKNTVYLQMNRLKPEDTAVYYCAADRVVFGYWYYYWGQGTQVTVSS | high polyreactivity
30 | QVQLVESGGGLVQAGGSLRLSCAASGRTFSAYAMGWYRQAPGKERELVADIRRGGGTNYADSVKGRFTISRDNAKNTVYLQMNSLKPEDTAVYYCAAGYLRTYTRRYYWGQGTQVTVSS | high polyreactivity
31 | QVHLVESVGGLVQAGGSLRLSCAASGRIFRYYAMGWYRQAPVKAWELVATISQRGGTYYADSVKGRFTISRDNAKNTVYLQMNSLKPEDTAVYYCAARINTYRSYYPSSRSDYWGQGTQVTVSS | high polyreactivity
32 | QVQLVESGGGLVQAGRSLRLSCAASGFTFSWYTMGWYRQAPGKERELVAAISSSGGNTYYADSVKGRFTISRDNAKNTVYLQMNSLKPEDNAVYYCVARFGSYGYYYWGQGTQVTVSS | high polyreactivity
33 | QVQLVKSGGGLVQAGGSLRLSCAASGSTFYNAMGWYRQAPGKERELVAAISIGGSTYYADSVKGRFTISRDNAKNTVYLQMNSLKPEDTAVYYCAAVWYTSRQKYDYWGHGTQVTVSS | low polyreactivity
34 | QVKLVESGGGLVQAGGSLRLSCAASGSTFSSYAMGWYRQAPGKERELVAAISSSGGTSTYADSVKGRFTISRDNAKNTVYLQMNSLKPEDTAVYYCAARQDRLLRDYRHDYWGQGTQVTVSS | high polyreactivity
35 | QVQLVESGGGLVQAGGSLRLSCADSGYIYPYYAMRWYRQAPGKERELVATITSRGGSTYYADSVKRRFTISRDIAKNTVYLQMNSLKPEDTAVYYCAIEYRYYRRRYDYCGQGTQVTVSS | high polyreactivity
36 | QVQLVESGGGLVQAGGSLRLSCAASGRTFDDNAMGWYRQAPGKEREFVADIDWSGGDTYYADSVKGRLTISRDNAKNTVYLQMNSLKPEDTAVYYCAARPIISVGRSRYDYWGQGTQVTVSS | high polyreactivity
37 | QVQLVESGGGLVQAGGSLRLSCAASISSINAMGWYRQAPGKERELVAAIRWSGSSTYYADSVKGRFTISRDNAKNTVYLQMNSLKPEDTAVYYCAARYVRVGYDYWGQGTQVTVSS | high polyreactivity
38 | QVQHVESGARLVQAGGSLRLSCAASGSTFYRNTMGWYRQAPGTERELVAAISSGGSTNYADSVTGRFTISRDNAKNTVYLQMNSLKPEDTGVYYCAAAIRVISDGWYYYWYDYWGQGTPVTVSS | high polyreactivity
39 | QVQLVESGGGLVQAGGSLRLSCAASGSIFYPYAMGWYRQAPGKERELVAAIRWRGGNTYYADSVKGRFTFSRDNAKNTVYLQMNSLKPEDTAVYYCAADGKYLQGFGYYYWGQGTQVTVSS | high polyreactivity
40 | QVQLVESGGGLVQAGGSLRLSCAASGNTFEYYTMGWYRKAPGKERELVASIDWSTTSTYYADSVKGRFTISRDNAKNTVYLQMNSLKPEDTAVYYCNTVYDYYHLGLYSGFRYHYWGQGTQGTVSS | low polyreactivity
41 | QVQLVESGGGLVQAGGSLRLSCAASGRTFYWYAMGWYRQAPGKERELVAAIRKTDTSTYYADSVKGRFTISRDNAKNTVYLQMNSLKPEDTAVYYCAARSTYSSGKYGYKYDYWGQGTQVTVSS | high polyreactivity
42 | QVQLVESGGDLVQAGGSLRLSCAASGITFYVNTMGSYRPAPGKERELVAAIDWTDGGTYYADSVKGRFTISRDNAKNTVYLQMNSLKPEDTAVYYCAREYYWDIKGLYGYLAYDLDYWGQGSQVTVSS | low polyreactivity
43 | QVQLVESGGGLVQAGGSLRLICAASGTFDHYAMGWDRQAPGKERELVAAISWSGGSTYYADSVKGRFTISRDNAKNTVYLQMNSLKPEDTAVYYCNAETDGYFESNDFDYWGQGTQVTVSS | high polyreactivity
